Assay [1] addresses T1, recombinant human Fibroblast Activation Protein (FAP) with N-terminus 6x histidine tag (human, UniProt Q12884 26-760).
T1 construct: Bought protein; also called rFAP; rhFAP
T1 sequence: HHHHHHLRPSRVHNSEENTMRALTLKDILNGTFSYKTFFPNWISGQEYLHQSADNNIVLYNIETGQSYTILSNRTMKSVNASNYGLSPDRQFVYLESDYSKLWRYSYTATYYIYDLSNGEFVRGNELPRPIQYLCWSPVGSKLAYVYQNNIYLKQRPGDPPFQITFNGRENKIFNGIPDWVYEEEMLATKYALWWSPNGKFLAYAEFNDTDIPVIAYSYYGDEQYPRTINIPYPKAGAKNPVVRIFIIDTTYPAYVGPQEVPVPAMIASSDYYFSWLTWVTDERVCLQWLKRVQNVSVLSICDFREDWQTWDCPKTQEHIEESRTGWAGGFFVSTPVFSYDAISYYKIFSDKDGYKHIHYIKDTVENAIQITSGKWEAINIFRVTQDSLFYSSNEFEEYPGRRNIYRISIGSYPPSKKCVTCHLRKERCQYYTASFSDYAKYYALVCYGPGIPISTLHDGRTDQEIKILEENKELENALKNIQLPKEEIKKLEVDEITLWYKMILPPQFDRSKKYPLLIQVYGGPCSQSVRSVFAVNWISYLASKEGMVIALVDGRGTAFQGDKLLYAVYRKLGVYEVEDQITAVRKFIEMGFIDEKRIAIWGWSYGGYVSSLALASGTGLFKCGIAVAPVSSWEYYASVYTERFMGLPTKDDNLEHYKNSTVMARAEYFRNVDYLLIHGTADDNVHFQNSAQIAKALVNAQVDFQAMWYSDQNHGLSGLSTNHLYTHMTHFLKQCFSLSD
The assay is described as follows: capture ELISA: His-tagged rFAP captured by coated anti-His antibody (sFAP). As for the experimental part: For the capture ELISA, the microplates were coated with mouse anti-His monoclonal antibody (Clontech) diluted to a concentration of 3 μg/ml in PBS, the plates were then blocked, FAP or BSA were diluted to a concentration of 2 μg/ml in PBS and added to the plates to be captured. The binding efficiency of the antibodies was then tested.
The EC₅₀ values were estimated by a non-linear regression using GraphPad Prism (San Diego, USA) software.
(In an ELISA, binding on a coated surface is turned into a signal by an enzyme label.)

In assay [2] the target is T1, recombinant human Fibroblast Activation …. The assay is described as follows: SPR (ProteOn): rhuFAP amine-coupled on a GLC chip, antibody injected at 106.7, 53.3, 26.7, 13.3 and 6.7 nM. On the procedure:
This was achieved by varying the concentration of the activation reagents used in each channel. Three activation solutions were prepared using a threefold serial dilution of a stock mixture containing 0.4 M EDC+0.1 M sulfo-NHS and injected for 360 s. Then rhuFAP at 2.5 μg/ml in coupling buffer (10 mM HEPES, 150 mM NaCl, 3.4 mM EDTA, 0.005% Tween 20, pH 5.2) was coupled for 1020 s at 25 μL/min. Excess reactive esters were blocked for 600 s with 1 M ethanolamine hydrochoride. […] serial dilution of […] starting at 16 μg/mL (106.7 nM) was injected for 400 s at 60 μL/min. A single injection delivered a full concentration series, using buffer to complete a row of six samples and provide an in-line blank for double-referencing the response data. Association and dissociation phases were measured for 400 s and 3600 s, respectively.

Assay [3] deals with T2, FAP peptide 521-539 with alanine substitution at position 532 (human).
T2 construct: also called spot 13
T2 peptide: KMILPPQFDRSAKYPLLIQ
The assay is described as follows: alanine-mutated linear peptides spotted on nitrocellulose. On the procedure:
(§1) Binding capacity of the antibodies was tested on these peptides spotted onto a nitrocellulose membrane (JPT Peptide Technologies, Berlin, Germany) and using HRP-conjugated donkey anti-human IgG secondary antibody (Jackson immunoResearch, Newmarket, UK) followed by detection of HRP activity (FIGS. 4A and C). In brief, epitope mapping was performed using scans of overlapping peptides. The entire sequences of FAP were synthesized as a total of 188 linear 15-mer peptides with an 11 amino acid overlap between individual peptides. Those peptides were spotted onto nitrocellulose membranes (JPT Peptide Technologies, Berlin, Germany). The membrane was activated for 5 min in methanol and washed in TBS for 10 min at RT. Non-specific binding sites were blocked for 2 h at RT with Roti®-Block (Carl Roth GmbH+Co. KG, Karlsruhe, Germany). Human antibodies (1 μg/ml) were incubated in Roti®-Block for 3 h at RT. Binding of primary antibody was determined using HRP-conjugated donkey anti-human IgG secondary antibody. Blots were developed and evaluated using ECL and ImageQuant 350 detection (GE Healthcare, Otelfingen, Switzerland).

For assay [4], the target named is T3, FAP peptide 521-539 with alanine substitution at position 529 (human).
T3 construct: also called spot 10
T3 peptide: KMILPPQFARSKKYPLLIQ
The assay is described as above. As for the experimental part:
as §1

In assay [5] the target is T1, recombinant human Fibroblast Activation …. The assay is described as follows: ELISA: rhFAP held on the plate by an anti-tag antibody, HRP-labelled NI-206.82C2 titrated, TMB, OD 450 nm [continued) E]. The source says:
(§2) Active recombinant human enzymes evaluated in this assay include: Fibroblast Activation Protein (FAP; Sino Biologicals, 10464-H07H), Dipeptidyl Peptidase IV (DPPIV, BPS Bioscience 80040), Dipeptidyl Peptidase 8 (DPP8, BPS Bioscience 80080), Dipeptidyl Peptidase 9 (DPP9, BPS Bioscience 80080), and Prolyl Oligopeptidase/Prolyl Endopeptidase (POP/PREP, BPS Bioscience 80105). Each recombinant peptidase was expressed with a purification tag, and attached to the 96 well ELISA plate using either a mouse anti-Histidine antibody (CloneTech), or a mouse anti-Glutathione S-transferase (GST, Sino Biologicals, 111213-MM02) tag antibody. […] H-Gly-Pro-AMC (ATT Bioquest, 13450) was used to validate the presence and activity of DPP4, DPP9, and DPP8. Z-Gly-Pro-AMC (BaChem, 11145) was used to evaluate the activity of FAP and POP/PREP. […] Following a washing step, bound antibody was detected using 3,3′,5,5′-Tetramethylbenzidine (TMB) substrate.

In assay [6] the target is T4, recombinant human Dipeptidyl Peptidase 8 (DPP8) (human, UniProt Q6V1X1 1-898, limits assumed).
T4 construct: Bought active enzyme; also called rhDPP8; BPS Bioscience 80080
T4 sequence (Q6V1X1 whole entry): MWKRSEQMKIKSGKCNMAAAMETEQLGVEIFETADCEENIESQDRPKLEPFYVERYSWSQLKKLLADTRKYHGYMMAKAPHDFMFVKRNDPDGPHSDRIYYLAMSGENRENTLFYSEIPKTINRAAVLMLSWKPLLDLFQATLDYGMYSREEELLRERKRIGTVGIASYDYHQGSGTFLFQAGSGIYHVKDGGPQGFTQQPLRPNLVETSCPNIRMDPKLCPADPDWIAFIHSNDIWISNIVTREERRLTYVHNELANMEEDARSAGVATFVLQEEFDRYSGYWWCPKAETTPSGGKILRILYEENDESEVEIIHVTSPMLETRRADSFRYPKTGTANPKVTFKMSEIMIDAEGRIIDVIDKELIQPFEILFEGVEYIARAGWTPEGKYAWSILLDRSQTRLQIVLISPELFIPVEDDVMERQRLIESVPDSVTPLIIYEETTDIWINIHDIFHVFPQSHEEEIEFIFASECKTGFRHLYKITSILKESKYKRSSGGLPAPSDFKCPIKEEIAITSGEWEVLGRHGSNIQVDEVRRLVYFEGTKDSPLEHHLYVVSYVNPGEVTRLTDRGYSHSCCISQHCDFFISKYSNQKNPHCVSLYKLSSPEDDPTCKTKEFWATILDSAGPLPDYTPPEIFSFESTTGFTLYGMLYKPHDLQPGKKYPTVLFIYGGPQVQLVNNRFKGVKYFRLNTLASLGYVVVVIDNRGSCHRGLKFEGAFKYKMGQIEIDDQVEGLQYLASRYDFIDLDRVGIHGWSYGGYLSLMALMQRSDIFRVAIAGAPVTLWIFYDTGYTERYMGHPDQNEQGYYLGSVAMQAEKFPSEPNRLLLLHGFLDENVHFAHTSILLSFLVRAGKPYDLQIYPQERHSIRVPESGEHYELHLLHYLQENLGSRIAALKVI
The assay is described as follows: ELISA: enzyme held on the plate by an anti-tag antibody, HRP-labelled NI-206.82C2 titrated [continued) E].
From the text: as §2

Assay [7] concerns the target T1, recombinant human Fibroblast Activation …. The assay is described as follows: direct ELISA: rFAP coated directly on the plate, antibody titrated, OD 450 nm.

Data on one molecule can be found in patent publication US20180022822A1 (MABIMMUNE DIAGNOSTICS, published 2018).

B1: NI-206.82C2 (antibody, V domains shown)
VH: QVQLQQSGPGLVKPSQTLSLTCAISGDSVSSNSVTWNWIRQSPSRGLEWLGRTYYRSKWYNDYAVSVKGRITINPDTSKNQFYLQLKSVTPEDAAVYYCARDSSILYGDYWGQGTLVTVSS
VL: QAVLTQPSSLSASPGASASLTCTLPSGINVGTYRIFWFQQKPGSPPQYLLSYKSDSDNHQGSGVPSRFSGSKDASANAGILLISGLQSEDEADYYCMIWHSSAWVFGGGTKLTVL
notes: Recombinantly expressed as complete human IgG1 with a lambda light chain; HRP-labelled in the homologue and sandwich ELISAs, Cy5-labelled in flow cytometry; also called HRP-labelled 82C2; Cy5 labelled 82C2
What is called EC50 is the concentration that produces a half-maximal response. Usually Kd stands for the concentration at which binding is half-saturated. A word on the koff: it is the rate constant with which the complex falls apart. As usually defined, the kon is the rate constant with which the complex forms. The term EC50 (read off the curve) denotes the concentration at which the effect is half-maximal. With B1, the EC50 in assay [1] was 0.014 nM; in assay [7] it was 0.608 nM. In addition, in assay [2], the Kd came out at 5.08 nM. Moreover, in assay [2], the koff was determined as 0.000861 s⁻¹. Besides, the on-rate (kon) in assay [2] was found to be 173000 M⁻¹ s⁻¹. The binding result in assay [3], in assay [4] and in assay [6] was “no binding” throughout. The “EC50 (read off the curve)” value in assay [5] is around 0.05 nM.
